Experimental data taken from article PMC2615626.

Target: Sulfolobus solfataricus 50S ribosomal subunit (S. solfataricus (endogenous in S. solfataricus cells)) (UniProt P55858)
Assay: co-sedimentation

Chain of UniProt P55858 (P55858 whole entry, looked up, tested part not stated): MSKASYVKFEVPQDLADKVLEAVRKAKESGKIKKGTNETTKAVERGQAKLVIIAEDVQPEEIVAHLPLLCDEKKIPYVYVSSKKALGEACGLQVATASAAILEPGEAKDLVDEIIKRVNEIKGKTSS

“recombinant Sulfolobus solfataricus aIF6, His-tagged (natural protein)” gave a stoichiometry N of 1 aIF6 per 50S.
